Results taken from patent publication US9644034B2, “Anti-RSPO2 antibodies and uses thereof” (OncoMed Pharmaceuticals, Inc., priority 2011, dated 2017).

B1: h130M23-H1L2: humanized anti-RSPO2 antibody; heavy chain SEQ ID NO:70, light chain SEQ ID NO:71 (antibody)
heavy: EVQLVESGGGLVKPGGSLRLSCAASGFTFSSYAMSWVRQAPGKGLEWVSSISSGGSTYYPDSVKGRFTISRDNAKNSLYLQMNSLRAEDTAVYYCARGGDPGVYNGDYEDAMDYWGQGTTVTVSSASTKGPSVFPLAPCSRSTSESTAALGCLVKDYFPEPVTVSWNSGALTSGVHTFPAVLQSSGLYSLSSVVTVPSSNFGTQTYTCNVDHKPSNTKVDKTVERKCCVECPPCPAPPVAGPSVFLFPPKPKDTLMISRTPEVTCVVVDVSHEDPEVQFNWYVDGVEVHNAKTKPREEQFNSTFRVVSVLTVVHQDWLNGKEYKCKVSNKGLPAPIEKTISKTKGQPREPQVYTLPPSREEMTKNQVSLTCLVKGFYPSDIAVEWESNGQPENNYKTTPPMLDSDGSFFLYSKLTVDKSRWQQGNVFSCSVMHEALHNHYTQKSLSLSPGK
light: DIQMTQSPSSLSASVGDRVTITCKASQDVSSAVAWYQQKPGKAPKLLIYWASTRHTGVPSRFSGSGSGTDFTLTISSVQAEDFATYYCQQHYSTPWTFGQGTKVEIKRTVAAPSVFIFPPSDEQLKSGTASVVCLLNNFYPREAKVQWKVDNALQSGNSQESVTEQDSKDSTYSLSNTLTLSKADYEKHKVYACEVTHQGLSSPVTKSFNRGEC
modifications: h130M23-H1L2 Heavy chain amino acid sequence; h130M23-H1L2 Light chain amino acid sequence
B2: 89M5: anti-RSPO1 monoclonal antibody, hybridoma ATCC PTA-11970; variable regions SEQ ID NO:10 and SEQ ID NO:11 (antibody, V domains shown)
VH: EVQLQQSGPELVKPGASVKISCKTSGYTFTGYTMHWVRQSHGKTLEWIGGINPNNGGTTYNQNFKGKATLTVEKSSTTAYLELRSLTSEDSALYYCARKEFSDGYYFFAYWGQGTLVTVSA
VL: DIVMTQSHKFMSTSVGDRVNITCKASQDVIFAVAWYQQKPGQSPKLLIYWASTRHTGVPDRFTGSVSGTDYTLTISSVQAEDLALYYCQQHYSTPWTFGGGTKLEIK
modifications: 89M5 Heavy chain variable region; 89M5 Light chain variable region

What was measured:
[1] = target: T1, human RSPO2 (Homo sapiens, UniProt Q6UXX9); assay: FACS binding of 130M23 and humanized 130M23 to HEK293 cells expressing FLAG-RSPO2furin-CD4TM-GFP; conditions: five-fold serial dilutions
T1 construct: followed by the furin-like domains of RSPO2 (aa 31-146); expressed in transfected cells; host or cells: HEK-293
Protocol: HEK293 cells were transiently transfected with an expression vector encoding FLAG-RSPO2furin-CD4TM-GFP. As described in Example 11, FLAG-RSPO2furin-CD4TM-GFP is a chimeric fusion protein enabling cell surface expression of the N-terminal furin-like domains of human RSPO2. FLAG-RSPO2furin-CD4TM-GFP transfected cells were incubated in the presence of anti-RSPO2 antibody 130M23 or humanized anti-RSPO2 antibody […]. Five-fold serial dilutions of each antibody were examined for their ability to bind to the RSPO2 expressing cells. The cells were stained with Phycoerythrin conjugated anti-IgG to reveal bound antibody. The cells were analyzed on a FACSCalibur instrument (BD Biosciences, San Jose, Calif.) and the data was processed using FlowJo software.

[2] = target: T2, human RSPO1 (Homo sapiens, UniProt Q2MKA7); assay: FACS screening of hybridoma supernatants on HEK-293 cells expressing FLAG-RSPO1furin-CD4TM-GFP; format: binding
T2 construct: followed by the two furin-like domains of RSPO1 (aa 34-135); expressed in transfected cells; host or cells: HEK-293
Source text: Antibodies were generated against recombinant human RSPO1 protein amino acids 31-263 (R&D Systems, Minneapolis, Minn.). Mice (n=3) were immunized with RSPO1 protein using standard techniques. Sera from individual mice were screened against RSPO1 approximately 70 days after initial immunization using FACS analysis. The animal with the highest antibody titer was selected for final antigen boost after which spleen cells were isolated for hybridoma production. SP2/0 cells were used as fusion partners for the mouse spleen cells. Hybridoma cells were plated at 1 cell per well in 96 well plates, and the supernatants were screened against human RSPO1 by FACS analysis.
For FACS screening of anti-RSPO1 antibodies a chimeric fusion protein enabling cell surface expression of the N-terminal furin-like domains of human RSPO1 was constructed.
HEK-293 cells were transfected with FLAG-RSPOlfurin-CD4TM-GFP. After 48 hours, transfected cells were suspended in ice cold PBS containing 2% FBS and heparin and incubated on ice in the presence of 50 μl of hybridoma supernatants for 30 minutes. A second incubation with 100 μl PE-conjugated […] secondary antibody was performed to detect cells bound by antibody. Cells were incubated with an anti-FLAG antibody (Sigma-Aldrich, St. Louis, Mo.) as a positive control and an anti-PE antibody as a negative control. The cells were analyzed on a FACSCalibur instrument (BD Biosciences, San Jose, Calif.) and the data was processed using FlowJo software.

[3] = system: RSPO1-induced β-catenin signaling; assay: TOPflash luciferase assay in HEK-293 cells, Wnt3a plus human RSPO1; format: cell-based; conditions: Wnt3a 5 ng/ml, RSPO1 10 ng/ml; antibodies 10 to 0.625 μg/ml
Protocol: HEK-293 cells were transfected with a 6×TCF-luciferase reporter vector (TOPflash, Millipore, Billerica, Mass.). After 24-48 hrs, the transfected HEK-293 cells were incubated with a combination of Wnt3a (5 ng/ml) and human RSPO1 (10 ng/ml, R&D BioSystems) in the presence of anti-RSPO1 antibodies 89M2, 89M4, 89M5, 89M7, 89M19, and 89M25, or 2 irrelevant control antibodies 254M14 and 254M26 (2-fold dilutions at 10 μg/ml to 0.625 μg/ml). The cells were incubated for 16 hours and luciferase activity was measured using Steady-Glo® Luciferase Assay System according to the manufacturer's instructions (Promega, Madison, Wis.).

[4] = target: T3, binding of RSPO1 to LGR5 (Homo sapiens, UniProt Q2MKA7); assay: FACS: blocking of soluble RSPO1-Fc binding to LGR5 on HEK-293 cells; conditions: RSPO1-Fc 10 μg/ml, antibodies 10 μg/ml
T3 construct: full-length human RSPO1, RSPO2, RSPO3 and RSPO4 were ligated in-frame to a human Fc region; made in house; host or cells: RSPO1-Fc: insect cells (baculovirus); LGR5 construct: transiently transfected HEK-293
Protocol: HEK-293 cells were transiently transfected with the FLAG-LGR5-CD4TM-GFP construct (previously described in Example 2). After 48 hours, transfected cells were suspended in ice cold PBS containing 2% FBS and heparin and incubated on ice in the presence of RSPO1-Fc protein (10 μg/ml) and antibodies 89M2, 89M4, 89M5, 89M7, 89M19 or 89M25 (10 μg/ml). A second incubation with 100 μl PE-conjugated anti-human Fc secondary antibody was performed to detect cells bound by the RSPO1-Fc fusion protein. The cells were analyzed on a FACSCalibur instrument (BD Biosciences, San Jose, Calif.) and the data was processed using FlowJo software.

[5] = system: OV19 ovarian tumor cells; assay: OV19 ovarian tumor xenograft growth in NOD/SCID mice; format: in vivo; conditions: day 35, vs control antibody; antibodies 15 mg/kg once a week, intraperitoneal
Protocol: Dissociated OV19 ovarian tumor cells (1×10^5cells) were injected in the mammary fat pads of 6-8 week old NOD/SCID mice. Tumors were allowed to grow for 45 days until they reached an average volume of 134 mm^3. The mice were randomized (n=10 per group) and treated with anti-RSPO1 antibody 89M5, 89M25, taxol, a combination of 89M5 and taxol, a combination of 89M25 and taxol, or control antibody 1B7.11. Antibodies were dosed at 15 mg/kg once a week, and taxol was dosed at […] once a week. Administration of the antibodies and taxol was performed via injection into the intraperitoneal cavity. Tumor growth was monitored and tumor volumes were measured with electronic calipers at the indicated time points. Data are expressed as mean±S.E.M.

[6] = system: PN31 pancreatic tumor cells; assay: PN31 pancreatic tumor xenograft growth in NOD/SCID mice; format: in vivo; conditions: antibodies 15 mg/kg once a week, intraperitoneal
Protocol: Dissociated PN31 pancreatic tumor cells (1×10^5cells) were injected subcutaneously into the flanks of 6-8 week old NOD/SCID mice. Tumors were allowed to grow for 61 days until they reached an average volume of 120 mm^3. The mice were randomized (n=10 per group) and treated with anti-RSPO1 antibody 89M5, anti-RSPO2 antibody 130M23, gemcitabine, a combination of 89M5 and gemcitabine, a combination of 130M23 and gemcitabine, or control antibody 1B7.11. Antibodies were dosed at 15 mg/kg once a week, and gemcitabine was dosed at […] once a week. Administration of the antibodies and gemcitabine was performed via injection into the intraperitoneal cavity. Tumor growth was monitored and tumor volumes were measured with electronic calipers at specific time points. Data are expressed as mean±S.E.M.

[7] = target: T2, human RSPO1; assay: FACS binding of 89M5 and humanized 89M5 to HEK293 cells expressing FLAG-RSPO1furin-CD4TM-GFP; conditions: five-fold serial dilutions
Protocol: HEK293 cells were transiently transfected with an expression vector encoding FLAG-RSPO1furin-CD4TM-GFP. As described in Example 5, FLAG-RSPO1furin-CD4TM-GFP is a chimeric fusion protein enabling cell surface expression of the N-terminal furin-like domains of human RSPO1. FLAG-RSPO1 furin-CD4TM-GFP transfected cells were incubated in the presence of anti-RSPO1 antibody 89M5 or humanized anti-RSPO1 antibody h89M5-H2L2. Five-fold serial dilutions of each antibody were examined for their ability to bind to the RSPO1 expressing cells. The cells were stained with Phycoerythrin conjugated anti-IgG to reveal bound antibody. The cells were analyzed on a FACSCalibur instrument (BD Biosciences, San Jose, Calif.) and the data was processed using FlowJo software.

T2 sequence (Q2MKA7 34-135): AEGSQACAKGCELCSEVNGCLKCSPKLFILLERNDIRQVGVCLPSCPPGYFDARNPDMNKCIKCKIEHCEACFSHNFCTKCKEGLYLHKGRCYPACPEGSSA
T3 sequence (Q2MKA7 21-263): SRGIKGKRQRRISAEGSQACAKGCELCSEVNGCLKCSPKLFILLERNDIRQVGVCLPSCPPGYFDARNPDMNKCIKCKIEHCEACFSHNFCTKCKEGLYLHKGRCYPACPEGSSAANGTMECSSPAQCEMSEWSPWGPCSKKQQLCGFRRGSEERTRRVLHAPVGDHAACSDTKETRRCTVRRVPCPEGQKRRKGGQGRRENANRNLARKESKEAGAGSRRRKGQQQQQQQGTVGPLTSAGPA
T1 sequence (Q6UXX9 31-146): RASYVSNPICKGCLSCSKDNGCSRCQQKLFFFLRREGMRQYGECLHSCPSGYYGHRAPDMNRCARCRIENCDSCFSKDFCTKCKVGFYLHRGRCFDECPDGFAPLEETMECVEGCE

Row | Molecule | binding to human RSPO2 (FACS) [1] | binding to RSPO1 (FACS) [2] | blocking of RSPO1-induced β-catenin signaling [3] | blocking of binding of RSPO1 to LGR5 [4] | reduction in tumor growth [5] | effect on tumor growth as single agents [6] | binding to human RSPO1 (FACS) [7]
1 | B1 | bind | – | – | – | – | – | –
2 | B2 | – | bound | blocked | blocked | 40% | only a minimal effect | bind
